Experimental data as given in patent US20020119139A1, “Cloning and recombinant expression of mammalian group XII secreted phospholipase A2” (priority 2000, published 2002).

B1: hGXII: novel human secreted phospholipase A2 of group XII, mature protein of 167 amino acids (SEQ ID No 2), produced in E. coli (protein)
chain: MALLSRPALTLLLLLMAAVVRCQEQAQTTDWRATLKTIRNGVHKIDTYLNAALDLLGGEDGLCQYKCSDGSKPFPRYGYKPSPPNGCGSPLFGVHLNIGIPSLTKCCNQHDRCYETCGKSKNDCDEEFQYCLSKICRDVQKTLGLTQHVQACETTVELLFDSVIHLGCKPYLDSQRAACRCHYEEKTDL
B2: hGIIA: human group IIA secreted phospholipase A2, used as literature comparator (protein, UniProt P14555 21-144, looked up)
Phospholipase A2, membrane …: NLVNFHRMIKLTTGKEAALSYGFYGCHCGVGGRGSPKDATDRCCVTHDCCYKRLEKRGCGTKFLSYKFSNSGSRITCAKQDSCRSQLCECDKAAATCFARNKTTYNKKYQYYSNKHCRGSTPRC

Legend:
[1] = Ca2+ dependency of the initial velocity of hydrolysis of POPC vesicles; type: biochemical; conditions: POPC vesicles with 1-palmitoyl-2-[8,9-3H]palmitoyl-sn-glycero-3-phosphocholine
Description: (§1) FIG. 3 represents the enzymatic properties of hGXII. […] Additional assay details have been reported elsewhere (18).
(§2) Large unilamellar vesicles (0.1 μm) of POPC, POPG, and POPS (31) were used to measure the initial rates of hydrolysis by hGXII in Hank's balanced salt solution with 1.2 mM CaCl2 and 0.9 mM MgCl2 using the fatty acid binding protein assay (17). The pH-rate profile and Ca^2+ dependency for the action of hGXII on POPG and POPC vesicles, respectively, were obtained as described (17).

[2] = pH-rate profile of hydrolysis of POPG vesicles; type: biochemical
Description: as §1, §2

[3] = Initial rates of hydrolysis of large unilamellar vesicles, fatty acid binding protein assay; type: biochemical
Description: as §1, §2

[4] = sPLA2 activity assay using radiolabeled E. coli membranes; type: biochemical; conditions: recombinant protein from E. coli; also active on POPG, POPS and POPC vesicles
Description: (§3) A mammalian expression vector containing the full-length hGXII cDNA was first used to transiently transfected HEK293 cells. […] Mass spectrometry analysis gave an experimental mass of 18,702.6±0.5 Da, which agrees well with the mass of 18,702.1 Da calculated from the sequence of mature hGXII shown in FIG. 1A.
The decrease as the pH is lowered presumably reflects, in part, the protonation of the active site histidine. As for all mammalian sPLA2s examined so far, the enzymatic activity of hGXII on phosphatidylglycerol vesicles is highest (FIG. 3C), which probably reflects the tighter binding of hGXII to anionic vesicles (37). Although hGXII hydrolyzes POPC at only ˜7% of the rate of POPG, this difference is small compared to the greater than 10^5-fold preference of hGIIA for POPG versus POPC (18).

[5] = sPLA2 activity secreted into culture medium of transiently transfected HEK293 cells; type: cell-based; conditions: 1-5 days after transfection
Description: as §3

[6] = from reference (18); cited from earlier work

Row | Molecule | Kca (Ca2+ dependence of sPLA2 activity toward POPC vesicles) [1] [µM] | pH of maximal activity [2] | POPS as substrate ([3]; POPS vesicles) | specific enzymatic activity compared to other mammalian sPLA2s ([3]; compared to hGIB, hGIIA, hGV, hGX, comparable to mGIIE) | enzymatic activity on phosphatidylglycerol vesicles ([3]; compared with POPC and POPS vesicles) | rate of POPC hydrolysis as % of the rate of POPG ([3]; large unilamellar vesicles (0.1 μm), Hank's balanced salt solution, 1.2 mM CaCl2, 0.9 mM MgCl2) [%] | sPLA2 catalytic activity [4] | sPLA2 activity secreted into the culture medium versus cells transfected with vector lacking the insert [5] | preference for POPG versus POPC [6]
1 | B1 | 30 ± 10 | ~8.0 | good substrate | low | highest | ~7 | catalytically active | barely above | 
2 | B2 |  |  |  |  |  |  |  |  | greater than 10^5 fold
